Measurements as given in patent US20140315986.

Legend:
[1] = target: IL-6 (mature human interleukin-6) (Homo sapiens) (UniProt P05231); experiment: filter
[2] = target: IL-6 (mature human interleukin-6) (Homo sapiens) (UniProt P05231); experiment: cell_activity; conditions: 2'-OMe at C3,G6,A16,A19,C20,C28, STAT3 gene reporter assay
[3] = target: T1, IL-6 (Macaca fascicularis) (UniProt P79341); experiment: filter; conditions: Bn-dU at 7,8,14,15,22,23,27,30; PE-dU at 9; Nap-dU at 12; 2'-OMe at C3,G6,A16,A19,C20,C28
T1 sequence: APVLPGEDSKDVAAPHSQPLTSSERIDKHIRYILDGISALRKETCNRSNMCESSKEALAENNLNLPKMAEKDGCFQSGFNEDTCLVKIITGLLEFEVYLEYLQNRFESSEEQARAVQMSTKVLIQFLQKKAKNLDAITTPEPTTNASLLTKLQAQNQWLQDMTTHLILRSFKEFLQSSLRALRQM

[4] = target: T1, IL-6 (Macaca fascicularis); experiment: cell_activity; conditions: Bn-dU at 7,8,14,15,22,23,27,30; PE-dU at 9; Nap-dU at 12; 2'-OMe at C3,G6,A16,A19,C20,C28; gene reporter assay

Row | Sequence | Kd ([1]; all U are Nap-dU) | further results
1 | GUUAUGUAGCGAGUGCGUAAGGCGGUGGGCGAGGGA [2574-49_17] | 17 nM | –
2 | GGCAGGUUUGGUAUUAACACGUUAAGUCGUGGGG [2573-20_13] | – | Kd ([1]; all U are Bn-dU): 1.9 nM
3 | GGCAGGUUUGGUAUUAACACGUUAAGUCGUGGGGU [2573-20_12] | – | Kd ([1]; all U are Bn-dU): 1.4 nM
4 | UUAUGUAGCGAGUGCGUAAGGCGGUGGGCGAGGGA [2574-49_18] | 19 nM | –
5 | GGCAGGUUUGGUAUUAACACGUUAAGUCGUGG [2573-20_15] | – | Kd ([1]; all U are Bn-dU): 1 nM
6 | GGCAGGUUUGGUAUUAACACGUUAAGUCGUGGG [2573-20_14] | – | Kd ([1]; all U are Bn-dU): 2.8 nM
7 | GGGGUUAUGUAGCGAGUGCGUAAGGCGGUGGGC [2574-49_11] | 1.5 nM | –
8 | GGCAGGUUUGGUAUUAACACGUUAAGUCGUGG [2573-20_135] | – | IC50 ([2]; all U are Bn-dU): 0.24 nM
9 | GGCAGGUUUGGUAUUAACACGUUAAGUCGUGGGGUC [2573-20_3] | – | Kd ([1]; all U are Bn-dU): 1.5 nM
10 | GGGGUUAUGUAGCGAGUGCGUAAGGCGGUGGG [2574-49_12] | 1.1 nM | –
11 | GGGUUAUGUAGCGAGUGCGUAAGGCGGUGGGCGAGGGA [2574-49_15] | 2.1 nM | –
12 | GGGGUUAUGUAGCGAGUGCGUAAGGCGGUGGGCGAGG [2574-49_7] | 2.6 nM | –
13 | GGGGUUAUGUAGCGAGUGCGUAAGGCGGUGGGCGAGGGA [2574-49_3] | 4.1 nM | –
14 | GATGTGAGTGTGTGACGAGUGGGCAGGUUUGGUAUUAACACGUUAAGUCGUGGGGUCGCACAGAGAAGAAACAAGACC [2573-20] | – | Kd ([1]; all U are Bn-dU (5-benzylcarboxamide-dU), SB17T-0.002 (125 mM NaCl, 5 mM KCl, 5 mM MgCl2), 37 C, ZORBAX capture): 3 nM
15 | GGGGUUAUGUAGCGAGUGCGUAAGGCGGUGG [2574-49_13] | 1.1 nM | –
16 | GGUUAUGUAGCGAGUGCGUAAGGCGGUGGGCGAGGGA [2574-49_16] | 3.9 nM | –
17 | GGGGUUAUGUAGCGAGUGCGUAAGGCGGUG [2574-49_14] | 0.7 nM | –
18 | GGGGUUAUGUAGCGAGUGCGUAAGGCGGUGGGCGAG [2574-49_8] | 1.2 nM | –
19 | GGCAGGUUUGGUAUUAACACGUUAAGUCGUGG [2573-20_136] | – | Kd [3]: 2 nM; IC50 [4]: 9.7 nM; IC50 ([2]; Bn-dU at 7,8,14,15,22,23,27,30, PE-dU at 9, Nap-dU at 12): 0.5 nM
20 | GGCAGGUUUGGUGUGG [2573-20_324 Bn7 to MBn variant] | – | Kd ([1]; G-G-C1-A-G-G1-MBn-Bn-Pe-G-G-Nap-C3-G-Bn-G-G (1=2'-OMe, C3=spacer), 100-fold improvement over parent stated): 1 nM
21 | GGCAGGUUUGGUGUGG [2573-20_324 G-quartet fragment] | – | Kd ([1]; G-G-C1-A-G-G1-Bn-Bn-Pe-G-G-Nap-C3-G-Bn-G-G (1=2'-OMe, C3=spacer), p263 states approximately 200 nM): 270 nM
22 | GGGGUUAUGUAGCGAGUGCGUAAGGCGGUGGGCGAGGG [2574-49_6] | 3.5 nM | –
23 | GATGTGAGTGTGTGACGAGGGGGUUAUGUAGCGAGUGCGUAAGGCGGUGGGCGAGGGAUCACAGAGAAGAAACAAGACC [2574-49] | – | Kd ([1]; all U are Nap-dU (5-naphthylmethylcarboxamide-dU), SB17T-0.002 (125 mM NaCl, 5 mM KCl, 5 mM MgCl2), 37 C, ZORBAX capture): 2 nM
24 | GGGGUUAUGUAGCGAGUGCGUAAGGCGGUGGGCG [2574-49_10] | 1.9 nM | –
25 | GGGGUUAUGUAGCGAGUGCGUAAGGCGGUGGGCGA [2574-49_9] | 1.8 nM | –
